Results: publication doi:10.1101/2022.05.09.491158

Biological target: purified recombinant I-A^b carrying a cleavable linker peptide (mouse)
Experiment: fluorescent peptide competition binding assay

Substance: NP peptide Q2, P2 (Ser to Gln) (from UniProt P03466 311-325)
- reduction in peptide-MHC binding (against the unsubstituted peptide): 3.4
